Results on one molecule are retold here after paper PMC2909962, “Integrin αvβ5 is a primary receptor for adenovirus in CAR-negative cells” (Virology Journal, 2010).

For the assay, the target named is Adenovirus Serotype 5, replication incompetent, E1A deleted, expressing GFP (Ad5-GFP), whole virus (human adenovirus serotype 5, UniProt P12538 1-571); P11818 1-581; P04133 1-952, Whole virion. Only the three major capsid proteins named in the paper are given, as wild type: penton base (5 at each of 12 vertices), fiber (trimer at each vertex), hexon (240 trimers; the paper prin). As to the kind of experiment: ELISA; cell-based: MDA-MB-435 cells in 96-well poly-D-lysine plates, incubated with whole Ad5 at varying concentrations for 18 hrs at 4°C, washed, fixed; bound virus detected with polyclonal rabbit anti-Ad5 and an ELISA amplification system; fit to the Langmuir binding isotherm. As to conditions: one partner purified. (In general: An ELISA detects its analyte on a solid surface through an enzyme-linked reagent.)

B1: Integrin αvβ5 (receptor)
chain 1: FNLDVDSPAEYSGPEGSYFGFAVDFFVPSASSRMFLLVGAPKANTTQPGIVEGGQVLKCDWSSTRRCQPIEFDATGNRDYAKDDPLEFKSHQWFGASVRSKQDKILACAPLYHWRTEMKQEREPVGTCFLQDGTKTVEYAPCRSQDIDADGQGFCQGGFSIDFTKADRVLLGGPGSFYWQGQLISDQVAEIVSKYDPNVYSIKYNNQLATRTAQAIFDDSYLGYSVAVGDFNGDGIDDFVSGVPRAARTLGMVYIYDGKNMSSLYNFTGEQMAAYFGFSVAATDINGDDYADVFIGAPLFMDRGSDGKLQEVGQVSVSLQRASGDFQTTKLNGFEVFARFGSAIAPLGDLDQDGFNDIAIAAPYGGEDKKGIVYIFNGRSTGLNAVPSQILEGQWAARSMPPSFGYSMKGATDIDKNGYPDLIVGAFGVDRAILYRARPVITVNAGLEVYPSILNQDNKTCSLPGTALKVSCFNVRFCLKADGKGVLPRKLNFQVELLLDKLKQKGAIRRALFLYSRSPSHSKNMTISRGGLMQCEELIAYLRDESEFRDKLTPITIFMEYRLDYRTAADTTGLQPILNQFTPANISRQAHILLDCGEDNVCKPKLEVSVDSDQKKIYIGDDNPLTLIVKAQNQGEGAYEAELIVSIPLQADFIGVVRNNEALARLSCAFKTENQTRQVVCDLGNPMKAGTQLLAGLRFSVHQQSEMDTSVKFDLQIQSSNLFDKVSPVVSHKVDLAVLAAVEIRGVSSPDHVFLPIPNWEHKENPETEEDVGPVVQHIYELRNNGPSSFSKAMLHLQWPYKYNNNTLLYILHYDIDGPMNCTSDMEINPLRIKISSLQTTEKNDTVAGQGERDHLITKRDLALSEGDIHTLGCGVAQCLKIVCQVGRLDRGKSAILYVKSLLWTETFMNKENQNHSYSLKSSASFNVIEFPYKNLPIEDITNSTLVTTNVTWGIQPAPMPVPVWVIILAVLAGLLLLAVLVFVMYRMGFFKRVRPPQEEQEREQLQPHENGEGNSET
chain 2: GLNICTSGSATSCEECLLIHPKCAWCSKEDFGSPRSITSRCDLRANLVKNGCGGEIESPASSFHVLRSLPLSSKGSGSAGWDVIQMTPQEIAVNLRPGDKTTFQLQVRQVEDYPVDLYYLMDLSLSMKDDLDNIRSLGTKLAEEMRKLTSNFRLGFGSFVDKDISPFSYTAPRYQTNPCIGYKLFPNCVPSFGFRHLLPLTDRVDSFNEEVRKQRVSRNRDAPEGGFDAVLQAAVCKEKIGWRKDALHLLVFTTDDVPHIALDGKLGGLVQPHDGQCHLNEANEYTASNQMDYPSLALLGEKLAENNINLIFAVTKNHYMLYKNFTALIPGTTVEILDGDSKNIIQLIINAYNSIRSKVELSVWDQPEDLNLFFTATCQDGVSYPGQRKCEGLKIGDTASFEVSLEARSCPSRHTEHVFALRPVGFRDSLEVGVTYNCTCGCSVGLEPNSARCNGSGTYVCGLCECSPGYLGTRCECQDGENQSVYQNLCREAEGKPLCSGRGDCSCNQCSCFESEFGKIYGPFCECDNFSCARNKGVLCSGHGECHCGECKCHAGYIGDNCNCSTDISTCRGRDGQICSERGHCLCGQCQCTEPGAFGEMCEKCPTCPDACSTKRDCVECLLLHSGKPDNQTCHSLCRDEVITWVDTIVKDDQEAVLCFYKTAKDCVMMFTYVELPSGKSNLTVLREPECGNTPNAMTILLAVVGSILLVGLALLAIWKLLVTIHDRREFAKFQSERSRARYEMASNPLYRKPISTHTVDFTFNKFNKSYNGTVD
notes: integrin alpha-V subunit, human, endogenous on the surface of MDA-MB-435 and MCF7 cells; integrin beta-5 subunit, human, endogenous on the surface of MDA-MB-435 and MCF7 cells; no isolated integrin was used; source: endogenous, on MDA-MB-435 and MCF7 cells
Regarding B1, the Kd (commonly the concentration at which binding is half-saturated) stood at 0.14 nM.
